IntAct's records for PubMed 16339905

B1: X-linked retinitis pigmentosa GTPase regulator-interacting protein 1 (Homo sapiens), Q96KN7-1 (parent)
chain: MSHLVDPTSGDLPVRDIDAIPLVLPASKGKNMKTQPPLSRMNREELEDSFFRLREDHMLVKELSWKQQDEIKRLRTTLLRLTAAGRDLRVAEEAAPLSETARRGQKAGWRQRLSMHQRPQMHRLQGHFHCVGPASPRRAQPRVQVGHRQLHTAGAPVPEKPKRGPRDRLSYTAPPSFKEHATNENRGEVASKPSELVSGSNSIISFSSVISMAKPIGLCMPNSAHIMASNTMQVEEPPKSPEKMWPKDENFEQRSSLECAQKAAELRASIKEKVELIRLKKLLHERNASLVMTKAQLTEVQEAYETLLQKNQGILSAAHEALLKQVNELRAELKEESKKAVSLKSQLEDVSILQMTLKEFQERVEDLEKERKLLNDNYDKLLESMLDSSDSSSQPHWSNELIAEQLQQQVSQLQDQLDAELEDKRKVLLELSREKAQNEDLKLEVTNILQKHKQEVELLQNAATISQPPDRQSEPATHPAVLQENTQIEPSEPKNQEEKKLSQVLNELQVSHAETTLELEKTRDMLILQRKINVCYQEELEAMMTKADNDNRDHKEKLERLTRLLDLKNNRIKQLEGILRSHDLPTSEQLKDVAYGTRPLSLCLETLPAHGDEDKVDISLLHQGENLFELHIHQAFLTSAALAQAGDTQPTTFCTYSFYDFETHCTPLSVGPQPLYDFTSQYVMETDSLFLHYLQEASARLDIHQAMASEHSTLAAGWICFDRVLETVEKVHGLATLIGAGGEEFGVLEYWMRLRFPIKPSLQACNKRKKAQVYLSTDVLGGRKAQEEEFRSESWEPQNELWIEITKCCGLRSRWLGTQPSPYAVYRFFTFSDHDTAIIPASNNPYFRDQARFPVLVTSDLDHYLRREALSIHVFDDEDLEPGSYLGRARVPLLPLAKNESIKGDFNLTDPAEKPNGSIQVQLDWKFPYIPPESFLKPEAQTKGKDTKDSSKISSEEEKASFPSQDQMASPEVPIEAGQYRSKRKPPHGGERKEKEHQVVSYSRRKHGKRIGVQGKNRMEYLSLNILNGNTPEQVNYTEWKFSETNSFIGDGFKNQHEEEEMTLSHSALKQKEPLHPVNDKESSEQGSEVSEAQTTDSDDVIVPPMSQKYPKADSEKMCIEIVSLAFYPEAEVMSDENIKQVYVEYKFYDLPLSETETPVSLRKPRAGEEIHFHFSKVIDLDPQEQQGRRRFLFDMLNGQDPDQGHLKFTVVSDPLDEEKKECEEVGYAYLQLWQILESGRDILEQELDIVSPEDLATPIGRLKVSLQAAAVLHAIYKEMTEDLFS
partner: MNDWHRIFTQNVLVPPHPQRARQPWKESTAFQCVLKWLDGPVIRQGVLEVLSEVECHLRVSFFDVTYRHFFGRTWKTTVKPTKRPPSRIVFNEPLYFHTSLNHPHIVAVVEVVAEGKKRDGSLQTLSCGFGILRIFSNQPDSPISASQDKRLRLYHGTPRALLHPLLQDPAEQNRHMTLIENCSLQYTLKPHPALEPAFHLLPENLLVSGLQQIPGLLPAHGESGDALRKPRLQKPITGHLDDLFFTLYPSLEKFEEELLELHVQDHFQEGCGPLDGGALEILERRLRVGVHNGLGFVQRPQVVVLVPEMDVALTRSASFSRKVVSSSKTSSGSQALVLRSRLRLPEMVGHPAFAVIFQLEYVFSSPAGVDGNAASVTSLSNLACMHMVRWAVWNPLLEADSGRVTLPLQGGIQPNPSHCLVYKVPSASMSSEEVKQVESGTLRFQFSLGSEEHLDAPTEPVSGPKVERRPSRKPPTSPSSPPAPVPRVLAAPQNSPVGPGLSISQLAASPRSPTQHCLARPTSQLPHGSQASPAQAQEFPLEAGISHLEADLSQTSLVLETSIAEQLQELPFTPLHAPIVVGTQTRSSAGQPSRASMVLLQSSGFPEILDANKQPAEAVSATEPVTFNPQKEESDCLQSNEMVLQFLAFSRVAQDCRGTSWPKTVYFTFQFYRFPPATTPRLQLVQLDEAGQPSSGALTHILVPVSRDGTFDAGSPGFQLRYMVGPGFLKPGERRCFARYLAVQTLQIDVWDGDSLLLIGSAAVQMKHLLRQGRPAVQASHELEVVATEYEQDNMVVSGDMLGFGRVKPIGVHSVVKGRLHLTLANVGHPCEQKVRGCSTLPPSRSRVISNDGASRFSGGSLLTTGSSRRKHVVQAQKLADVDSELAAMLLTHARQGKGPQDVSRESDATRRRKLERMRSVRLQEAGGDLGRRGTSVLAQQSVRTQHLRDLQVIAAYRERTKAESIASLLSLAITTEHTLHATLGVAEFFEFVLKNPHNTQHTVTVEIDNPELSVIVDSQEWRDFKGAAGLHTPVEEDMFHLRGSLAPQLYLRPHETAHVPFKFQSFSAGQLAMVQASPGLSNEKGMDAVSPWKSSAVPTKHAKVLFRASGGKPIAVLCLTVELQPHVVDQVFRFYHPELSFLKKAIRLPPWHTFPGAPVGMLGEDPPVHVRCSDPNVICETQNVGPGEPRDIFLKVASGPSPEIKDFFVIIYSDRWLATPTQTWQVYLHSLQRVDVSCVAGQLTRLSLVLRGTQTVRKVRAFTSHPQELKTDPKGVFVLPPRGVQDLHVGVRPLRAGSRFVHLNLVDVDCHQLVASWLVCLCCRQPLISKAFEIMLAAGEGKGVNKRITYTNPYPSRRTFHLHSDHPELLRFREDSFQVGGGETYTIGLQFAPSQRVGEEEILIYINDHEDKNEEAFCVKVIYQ
B2: Nephrocystin-4 (Homo sapiens), O75161-1 (parent)
chain: B1 partner
partner: B1 chain

Variants of: B1
Conditions: with NPHP4, O75161-1

Row | Variant | effect of a mutation on the interaction
1 | R852Q | with no effect
2 | D876G | disrupting interaction
3 | G746E | disrupting interaction

Variants of: B1
Conditions: with NPHP4, O75161-1
Remark: another data set of the same source

Row | Variant | effect of a mutation on the interaction
4 | D876G | decreasing interaction

Variants of: B2
Conditions: with RPGRIP1, Q96KN7-1

Row | Variant | effect of a mutation on the interaction
5 | G754R | disrupting interaction
